According to paper PMC11373624, “Development and preclinical characterization of a novel radiotheranostic EphA2-targeting bicyclic peptide” (Theranostics, 2024):
Numbered stars: 1 amine (or outer) side, 2 acyl side, 3 side chain; on linkers, the order of the positions; unused ones are H or OH. Bridge positions count the residues as written; N and C are the ends. Square brackets hold non-standard residues; d marks the D form. Peptide text beside a SMILES is read from it. * marks the point of attachment. DOTA = O=C(O)CN1CCN(CC(=O)O)CCN(CC(=O)*)CCN(CC(=O)O)CC1; TATA = O=C(CC[*:1])N1CN(C(=O)CC[*:2])CN(C(=O)CC[*:3])C1; Hyp = O=C(O)[C@@H]1C[C@@H](O)CN1; hArg = N=C(N)NCCCC[C@H](N)C(=O)O; Cba = N[C@@H](CC1CCC1)C(=O)O; βAla = NCCC(=O)O; Sar = CNCC(=O)O

How the values were obtained:
HT1080 cells = experiment: Cell surface binding and internalization assay; format: cell-based, human
Method: To assess internalization and specificity, HT1080 cells (10^5 cells/well) were seeded in a 24-well plate coated with poly-L-lysine one day before the experiment. […] To determine specific uptake, 'cold' (non-radiolabeled) BCY18469 was added to half of the wells at an excess concentration of 10 µM/well or, alternatively, the cells were kept at 4 °C during the experiment. Following the incubation, the cells were thoroughly rinsed with cold PBS (3 x 1 mL). Subsequently, surface bound radioactivity was removed by washing with 50 mM glycine (pH 2.8, 2 x 500 µL). Finally, the internalized fraction was determined by lysing the cells with 0.5 M NaOH (500 µL). All fractions were collected and measured using a gamma counter (Perkin Elmer Wizard2, Germany). All counts were standardized to the initial activity, and specific surface binding as well as specific internalization were calculated by subtracting the non-specific binding values obtained from the wells treated with an excess of 'cold' compound. Results were calculated and expressed as %AA/10^5 cells (% applied activity/10^5 cells).

in vivo = settings: mouse; for tissue to tissue ratio at 1 h / tissue to tissue ratio at 2 h / tissue to tissue ratio at 6 h / tissue to tissue ratio at 24 h: iv, 150 pmol
Source text: (§1) For the cut and count biodistribution study of [^177Lu]Lu-BCY18469 the HT1080 xenograft model was used. […] (n = 3 mice per time point). Thereafter, mice were dissected, and organs of interest harvested, which included: blood, heart, lung, spleen, liver, kidneys, muscle (quadriceps), intestine, brain, tail, bone (femur) and grafted tumor.

HT1080 tumor xenograft = experiment: in vivo; settings: mouse
Source text: as §1

[1] = 4°C, block with 10 µM non-labeled compound, listed as 177Lu-BCY18469
[2] = 37°C, 45 min, 30 nM, listed as 177Lu-BCY18469
[3] = total radioactivity, Tumor-to-blood ratio
[4] = total radioactivity, Tumor-to-heart ratio
[5] = total radioactivity, Tumor-to-intestine ratio
[6] = total radioactivity, Tumor-to-kidneys ratio
[7] = total radioactivity, Tumor-to-liver ratio
[8] = total radioactivity, Tumor-to-lung ratio
[9] = total radioactivity, Tumor-to-muscle ratio
[10] = total radioactivity, Tumor-to-spleen ratio
[11] = total radioactivity, Tumor uptake

CC(C)C[C@@H]1NC(=O)[C@@H]2CSCCC(=O)N3CN(CN(C3)C(=O)CCSC[C@H](NC(=O)[C@H](CC(=O)O)NC(=O)[C@H](CCCCNC(=N)N)NC(=O)[C@H](C)NC(=O)CN(C)C(=O)CN(C)C(=O)CN(C)C(=O)CN(C)C(=O)CN(C)C(=O)CN(C)C(=O)CN(C)C(=O)CN(C)C(=O)CN(C)C(=O)CN(C)C(=O)CCNC(=O)CN3CCN(CC(=O)O)CCN(CC(=O)O)CCN(CC(=O)O)CC3)C(=O)N3C[C@H](O)C[C@H]3C(=O)N[C@@H](CC3CCC3)C(=O)N[C@@H](C(C)C)C(=O)N[C@@H](CC(N)=O)C(=O)N3CCC[C@H]3C(=O)N[C@@H](CC(C)C)C(=O)N2)C(=O)CCSC[C@@H](C(N)=O)NC(=O)[C@H](CCCCNC(=N)N)NC(=O)[C@H](Cc2c[nH]c3ccccc23)NC(=O)[C@@H](CC(=O)O)NC(=O)[C@@H]2CCCN2C(=O)[C@H](Cc2c[nH]cn2)NC1=O [[177Lu]Lu-BCY18469, metal not drawn] ({DOTA-βAla}-[Sar][Sar][Sar][Sar][Sar][Sar][Sar][Sar][Sar][Sar]A[hArg]DC[Hyp][Cba]VNPLCLHP[dD]W[hArg]C-NH2; linker 14-21-28 via TATA)
Cell Surface B 4°C (HT1080 cells; [1]): 0.05 ± 0.01 %AA/10^5 cells | Internalization B 4°C (HT1080 cells; [1]): 0.01 ± 0.01 %AA/10^5 cells | Cell Surface 4°C (HT1080 cells; 4°C, listed as 177Lu-BCY18469): 0.51 ± 0.01 %AA/10^5 cells | Internalization 4°C (HT1080 cells; 4°C, listed as 177Lu-BCY18469): 0.06 ± 0.01 %AA/10^5 cells | Cell Surface (HT1080 cells; [2]): 0.62 ± 0.03 %AA/10^5 cells | Internalization (HT1080 cells; [2]): 0.13 ± 0.01 %AA/10^5 cells | Cell Surface B (HT1080 cells; 37°C, block with 10 µM non-labeled compound): 0.02 ± 0.01 %AA/10^5 cells | Internalization B (HT1080 cells; 37°C, block with 10 µM non-labeled compound, listed as 177Lu-BCY18469): 0.01 ± 0.01 %AA/10^5 cells | tissue uptake at 1 h (in vivo; Blood uptake): 0.2 %ID/g | tissue uptake at 2 h (in vivo; Blood uptake): 0.03 %ID/g | tissue uptake at 6 h (in vivo; Blood uptake): 0.02 %ID/g | tissue uptake at 24 h (in vivo; Blood uptake): 0.01 %ID/g | tissue uptake at 1 h (in vivo; Bone uptake): 0.3 %ID/g | tissue uptake at 2 h (in vivo; Bone uptake): 0.21 %ID/g | tissue uptake at 6 h (in vivo; Bone uptake): 0.56 %ID/g | tissue uptake at 24 h (in vivo; Bone uptake): 0.44 %ID/g | tissue uptake at 2 h (in vivo; Brain uptake): 0.01 %ID/g | tissue uptake at 6 h (in vivo; Brain uptake): 0.01 %ID/g | tissue uptake at 1 h (in vivo; Heart uptake): 0.1 %ID/g | tissue uptake at 2 h (in vivo; Heart uptake): 0.03 %ID/g | tissue uptake at 6 h (in vivo; Heart uptake): 0.05 %ID/g | tissue uptake at 24 h (in vivo; Heart uptake): 0.03 %ID/g | tissue uptake at 1 h (in vivo; Intestine uptake): 0.34 %ID/g | tissue uptake at 2 h (in vivo; Intestine uptake): 0.16 %ID/g | tissue uptake at 6 h (in vivo; Intestine uptake): 0.15 %ID/g | tissue uptake at 24 h (in vivo; Intestine uptake): 0.1 %ID/g | tissue uptake at 1 h (in vivo; Kidneys uptake): 65.3 %ID/g | tissue uptake at 2 h (in vivo; Kidneys uptake): 47.2 %ID/g | tissue uptake at 6 h (in vivo; Kidneys uptake): 62.6 %ID/g | tissue uptake at 1 h (in vivo; Liver uptake): 0.25 %ID/g | tissue uptake at 2 h (in vivo; Liver uptake): 0.15 %ID/g | tissue uptake at 6 h (in vivo; Liver uptake): 0.6 %ID/g | tissue uptake at 24 h (in vivo; Liver uptake): 0.53 %ID/g | tissue uptake at 1 h (in vivo; Lung uptake): 0.7 %ID/g | tissue uptake at 2 h (in vivo; Lung uptake): 0.19 %ID/g | tissue uptake at 6 h (in vivo; Lung uptake): 0.28 %ID/g | tissue uptake at 24 h (in vivo; Lung uptake): 0.13 %ID/g | tissue uptake at 1 h (in vivo; Muscle uptake): 0.06 %ID/g | tissue uptake at 2 h (in vivo; Muscle uptake): 0.02 %ID/g | tissue uptake at 6 h (in vivo; Muscle uptake): 0.03 %ID/g | tissue uptake at 24 h (in vivo; Muscle uptake): 0.02 %ID/g | tissue uptake at 1 h (in vivo; Spleen uptake): 0.6 %ID/g | tissue uptake at 2 h (in vivo; Spleen uptake): 0.16 %ID/g | tissue uptake at 6 h (in vivo; Spleen uptake): 0.4 %ID/g | tissue uptake at 24 h (in vivo; Spleen uptake): 0.31 %ID/g | tissue uptake at 1 h (in vivo; Tail uptake): 1.8 %ID/g | tissue uptake at 2 h (in vivo; Tail uptake): 0.7 %ID/g | tissue uptake at 6 h (in vivo; Tail uptake): 0.83 %ID/g | tissue uptake at 24 h (in vivo; Tail uptake): 0.38 %ID/g | tissue uptake at 2 h (in vivo; Tumor uptake): 9.99 %ID/g | tissue to tissue ratio at 1 h (in vivo; [3]): 97.5 | tissue to tissue ratio at 2 h (in vivo; [3]): 333 | tissue to tissue ratio at 6 h (in vivo; [3]): 278 | tissue to tissue ratio at 24 h (in vivo; [3]): 177 | tissue to tissue ratio at 1 h (in vivo; [4]): 195 | tissue to tissue ratio at 2 h (in vivo; [4]): 333 | tissue to tissue ratio at 6 h (in vivo; [4]): 111 | tissue to tissue ratio at 24 h (in vivo; [4]): 59 | tissue to tissue ratio at 1 h (in vivo; [5]): 57.4 | tissue to tissue ratio at 2 h (in vivo; [5]): 62.4 | tissue to tissue ratio at 6 h (in vivo; [5]): 37.1 | tissue to tissue ratio at 24 h (in vivo; [5]): 17.7 | tissue to tissue ratio at 1 h (in vivo; [6]): 0.3 | tissue to tissue ratio at 2 h (in vivo; [6]): 0.21 | tissue to tissue ratio at 6 h (in vivo; [6]): 0.09 | tissue to tissue ratio at 24 h (in vivo; [6]): 0.03 | tissue to tissue ratio at 1 h (in vivo; [7]): 78 | tissue to tissue ratio at 2 h (in vivo; [7]): 66.6 | tissue to tissue ratio at 6 h (in vivo; [7]): 9.27 | tissue to tissue ratio at 24 h (in vivo; [7]): 3.34 | tissue to tissue ratio at 1 h (in vivo; [8]): 27.9 | tissue to tissue ratio at 2 h (in vivo; [8]): 52.6 | tissue to tissue ratio at 6 h (in vivo; [8]): 19.9 | tissue to tissue ratio at 24 h (in vivo; [8]): 13.6 | tissue to tissue ratio at 1 h (in vivo; [9]): 325 | tissue to tissue ratio at 2 h (in vivo; [9]): 500 | tissue to tissue ratio at 6 h (in vivo; [9]): 185 | tissue to tissue ratio at 24 h (in vivo; [9]): 88.5 | tissue to tissue ratio at 1 h (in vivo; [10]): 32.5 | tissue to tissue ratio at 2 h (in vivo; [10]): 62.4 | tissue to tissue ratio at 6 h (in vivo; [10]): 13.9 | tissue to tissue ratio at 24 h (in vivo; [10]): 5.71 | tissue uptake at 24 h (in vivo; total radioactivity, Kidneys uptake): 54.9 ± 17.1 %ID/g | tissue uptake (in vivo; total radioactivity, Non-target organs uptake): ≤ 1 %ID/g | tissue uptake at 1 h (in vivo; [11]): 19.5 ± 3.5 %ID/g | tissue uptake at 6 h (in vivo; [11]): 5.56 ± 1.24 %ID/g | tissue uptake at 24 h (in vivo; [11]): 1.77 ± 0.51 %ID/g | Brain uptake (HT1080 tumor xenograft; 1 h): 0 %ID/g | Brain uptake (HT1080 tumor xenograft; 24 h): 0 %ID/g | Tumor-to-muscle ratio (HT1080 tumor xenograft; iv, 150 pmol, 24 h): 88
